The target in assay [1] is T1, human IgE (NBS-00911-0-100) (human, UniProt P01854-1 1-428).
T1 construct: Bought reagent; also called soluble IgE
Description: capture ELISA: adsorber on a capturing antibody, 1 µg/ml IgE, anti IgE-HRPO. The protocol:
Protease resistant A43-FceRIa adsorber has similar affinity, avidity and specificity to IgE when compared to wild type FceRIa or prior art single chain antibody scFv12 (WO 2012/140214 A1) when comparing IgE binding by capture ELISA. Plates were coated with capturing antibody, after blocking HEK cell-purified recombinant protein derived from ScFv12 and FceRIa transfected cells, coated protein was incubated for 1 hour at RT. 1 μg/ml IgE (NBS-00911-0-100), trapped for 1 h/RT and detected for IgE binding using 1 μg/ml anti IgE-HRPO mAB (Novus Biologicals NBP1-74934) for 1 hour at RT.

In assay [2] the target is T1, human IgE (NBS-00911-0-100). Description: SPR (Biacore 2000, 25 °C), adsorber captured by anti-Tag mAB, IgE 0.5-64 nM as analyte, 1:1 model. The protocol:
The surface of a Streptavidine (SA) sensor chip (GE Healthcare Biacore, Cat. Nr. BR-1000-32) was prepared by three injections with 20 μl of 50 mM NaOH following a 200 μl injection of the biotinylated anti-Tag-mAB (Abcam ab10241) diluted to 2 μg/ml in HBS-EP (0.01 M HEPES, 0.15 M NaCl, 3 mM EDTA, 0.005% (v/v) surfactant P20 (pH 7.4) (GE Healthcare Cat. Nr. BR-1001-88) resulting in an immobilization level of ˜2500 RU for capturing on flow cell 4. Free SA-binding sites were saturated by two consecutive 100 μl injections of 1 mM D-Biotin (Sigma #47868). Flow cell 3 was saturated with free D-Biotin and served as reference cell. The capturing level of FceRIa variants and of the ScFv12 required to obtain a maximal response of 100 RU of IgE binding was calculated to be 75 RU and 80 RU, respectively. Therefore FceRIa, A43-FceRIa and scFv12 were diluted in HBS-EP and injected into flow cell 3 and 4 (30 μl/min) until the immobilization level of 90 RU was reached. After a stabilization time of 10 min with injection of running buffer, the final capturing level of 75 and 80 RU respectively were obtained. Finally the individual interactions of FceRIa, A43-FceRIa and scFv12 with IgE (NBS-00911-0-100) diluted in HBS-EP running buffer at 2-fold increasing concentrations (starting concentration, 0.5 nM; maximum concentration, 64 nM) were assessed with an IgE-association phase of 3 min at a flow rate of 30 μl/min. The dissociation phase was investigated by injection of HBS-EP for 30 min at a flow rate of 30 μl/min. The sensor chip surface was regenerated by injecting 15 μl of 10 mM Glycine-HCl pH 1.8 at the same. The dissociation constant (KD-Value), on-rate (ka) and off-rate (kd) were calculated with BIAevaluation 4.1 (GE Healthcare Biacore) using a 1:1 interaction model. All measurements were performed on a Biacore 2000 device at 25° C.

T1 sequence (P01854 other isoform, or with tags, fused parts or gaps): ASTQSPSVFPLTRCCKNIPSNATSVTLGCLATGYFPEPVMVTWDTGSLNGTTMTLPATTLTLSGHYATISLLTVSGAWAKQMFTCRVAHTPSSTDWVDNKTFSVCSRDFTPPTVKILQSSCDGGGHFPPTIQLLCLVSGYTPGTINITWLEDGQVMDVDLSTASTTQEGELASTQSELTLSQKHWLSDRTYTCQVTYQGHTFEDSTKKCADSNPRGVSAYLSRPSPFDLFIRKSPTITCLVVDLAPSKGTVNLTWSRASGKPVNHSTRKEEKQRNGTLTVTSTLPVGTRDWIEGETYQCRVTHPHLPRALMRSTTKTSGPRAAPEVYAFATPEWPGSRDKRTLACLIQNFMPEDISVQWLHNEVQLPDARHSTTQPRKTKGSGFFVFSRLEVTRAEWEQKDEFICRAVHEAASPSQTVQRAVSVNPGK

B1: recombinant wild type FceRIa (extracellular region of the alpha chain of the human high-affinity IgE receptor, spacer, 6His) (receptor)
chain: PDGVLAVPQKPKVSLNPPWNRIFKGENVTLTCNGNNFFEVSSTKWFHNGSLSEETNSSLNIVNAKFEDSGEYKCQHQQVNESEPVYLEVFSDWLLLQASAEVVMEGQPLFLRCHGWRNWDVYKVIYYKDGEALKYWYENHNISITNATVEDSGTYYCTGKVWQLDYESEPLNITVIKAPREKYWLQHHHHHH
notes: Peptide K (VPQKPK...) begins at V26, so the secreted protein may begin at residue 26; also called WT-FceRIa; wt-FceRIa; not shown: spacer between FceRIa and 6His
The molecule B1 had an EC50 in assay [1] of 0.0245 µg/mL. Besides, in assay [2], the Kd stood at 0.473 nM, the koff stood at 0.00052 s⁻¹ and the kon is 1.1e+06 M⁻¹ s⁻¹.

B2: protease resistant A43-FceRIa (K43 to A43 variant of recombinant human FceRIa) (receptor)
chain (part 1 of 2): PDGVLAVPQKPKVSLNPPWNRIFAGENVTLTCNGNNFFEVSSTKWFHNGSLSEETNSSLNIVNAKFEDSGEYKCQHQQVNESEPVYLEVFSDWLLLQASAEVVMEGQPLFLRCHGWRNWDVYKVIYYKDGEALKYWYENHNISITNATVEDSGTYYCTGKVWQLDYESEPLNITVIKAPREKYWLQ
chain (part 2 of 2): HHHHHH
notes: also called A43 mutant; protease-resistant variant A43-FceRIa; not shown: spacer
B2: the EC50 in assay [1] was 0.0344 µg/mL. Also, in assay [2], the Kd stood at 0.379 nM, the koff was found to be 0.000492 s⁻¹ and the kon amounted to 1.3e+06 M⁻¹ s⁻¹.

(Values after US20190127438A1 (AFFIRIS, published 2019).)
